Data published in US20140302041A1 (ORIBASE PHARMA, published 2014).

Legend:
[1] = biological target: T1, human Axl on the cell surface (A549 cells; pancreatic cancer cell lines) (human, UniProt P30530 26-894); experiment: flow cytometry on A549 cells, fluorescein-conjugated anti-mouse IgG
T1 construct: whole, on cells; also called cell surface Axl; Axl receptor
T1 sequence (looked up): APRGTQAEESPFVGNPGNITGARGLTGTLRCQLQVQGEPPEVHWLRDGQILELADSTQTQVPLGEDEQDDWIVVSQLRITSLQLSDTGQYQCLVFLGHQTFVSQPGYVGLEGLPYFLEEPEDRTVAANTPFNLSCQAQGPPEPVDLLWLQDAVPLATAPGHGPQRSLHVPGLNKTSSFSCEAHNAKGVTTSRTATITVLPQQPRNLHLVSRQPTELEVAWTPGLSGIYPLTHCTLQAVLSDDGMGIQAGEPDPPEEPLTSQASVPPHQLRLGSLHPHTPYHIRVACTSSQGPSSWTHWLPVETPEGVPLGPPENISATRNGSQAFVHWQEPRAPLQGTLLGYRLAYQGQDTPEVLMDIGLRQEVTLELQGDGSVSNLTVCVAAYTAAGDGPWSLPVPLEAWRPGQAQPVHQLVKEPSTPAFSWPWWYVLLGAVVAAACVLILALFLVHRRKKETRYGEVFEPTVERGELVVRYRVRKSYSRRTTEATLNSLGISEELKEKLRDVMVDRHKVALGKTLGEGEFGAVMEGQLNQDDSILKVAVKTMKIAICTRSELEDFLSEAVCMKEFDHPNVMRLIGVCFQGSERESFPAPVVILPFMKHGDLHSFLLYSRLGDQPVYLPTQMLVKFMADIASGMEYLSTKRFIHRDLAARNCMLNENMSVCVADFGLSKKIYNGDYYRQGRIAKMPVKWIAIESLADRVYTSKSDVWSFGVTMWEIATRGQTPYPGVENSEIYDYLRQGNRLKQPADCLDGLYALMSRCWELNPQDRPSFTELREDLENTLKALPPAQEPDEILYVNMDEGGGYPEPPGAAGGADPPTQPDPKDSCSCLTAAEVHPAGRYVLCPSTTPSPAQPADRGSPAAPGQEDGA
Experimental: FIG. 2: Flow cytometry analysis of cell surface Axl in A549.
The ability of mouse anti-Axl monoclonal antibodies of the invention to specifically recognize Axl expressing cells was determined by FACS using standard techniques. Briefly, A549 cells (ATCC number: CCL-185) were harvested, stained with purified mouse anti-Axl monoclonal antibodies of the invention at 4° C. for 1 hour, washed three times in PBS-BSA 0.1%, and then stained with fluorescein-conjugated anti-mouse IgG (1:50) (Sigma) at 4° C. in the dark for 45 min. Samples were analyzed on EPICS flow cytometer (Beckman-Coulter, Fullerton, Calif.).

[2] = biological target: T2, human Mer-Fc (human, UniProt Q12866 26-499, limits assumed); experiment: ELISA, plates with human Mer-Fc, HRP-conjugated anti-mouse IgG, OD 450 nm
T2 construct: also called h-Mer; not shown: Fc part
T2 sequence (looked up): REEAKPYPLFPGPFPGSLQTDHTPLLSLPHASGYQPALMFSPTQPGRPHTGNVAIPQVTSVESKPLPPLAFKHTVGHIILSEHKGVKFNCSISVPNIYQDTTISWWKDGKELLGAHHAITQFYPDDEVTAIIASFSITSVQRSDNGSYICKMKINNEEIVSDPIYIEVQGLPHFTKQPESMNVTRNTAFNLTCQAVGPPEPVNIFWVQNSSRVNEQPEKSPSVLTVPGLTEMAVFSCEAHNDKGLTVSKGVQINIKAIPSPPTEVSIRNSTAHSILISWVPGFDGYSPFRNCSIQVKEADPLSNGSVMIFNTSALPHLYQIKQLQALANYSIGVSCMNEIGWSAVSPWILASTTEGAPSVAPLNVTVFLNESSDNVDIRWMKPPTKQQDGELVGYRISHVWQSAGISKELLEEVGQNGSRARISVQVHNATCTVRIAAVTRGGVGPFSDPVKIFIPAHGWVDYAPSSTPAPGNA
Experimental: (§1) FIG. 1: ELISA experiments to investigate the affinity and the specificity of mouse monoclonal antibodies against hAxl.
(§2) For cross reaction assay, coated plates were incubated with human Axl-Fc (h-Axl), mouse Axl-Fc (m-Axl) or human Mer-Fc (h-Mer), Tyro-3-Fc (h-Tyro-3) for 1 hour at 37° C. and washed four times in PBST. Plates were incubated with anti-Axl mAbs (2 hours at 37° C.) and washed four times in PBST. Plates were incubated with HRP-conjugated anti-mouse IgG (Sigma) at a 1:2000 dilution in PBST, 1% BSA (1 hour at 37° C.). Finally, an ortho-phenylenediamine solution (Sigma) was added for 30 min at room temperature in the dark and the absorbance was measured at 450 nm.

[3] = biological target: T3, mouse Axl-Fc (mouse, UniProt Q00993 20-443, limits assumed); experiment: ELISA, plates with mouse Axl-Fc, HRP-conjugated anti-mouse IgG, OD 450 nm
T3 construct: also called m-Axl; not shown: Fc part
T3 sequence (looked up): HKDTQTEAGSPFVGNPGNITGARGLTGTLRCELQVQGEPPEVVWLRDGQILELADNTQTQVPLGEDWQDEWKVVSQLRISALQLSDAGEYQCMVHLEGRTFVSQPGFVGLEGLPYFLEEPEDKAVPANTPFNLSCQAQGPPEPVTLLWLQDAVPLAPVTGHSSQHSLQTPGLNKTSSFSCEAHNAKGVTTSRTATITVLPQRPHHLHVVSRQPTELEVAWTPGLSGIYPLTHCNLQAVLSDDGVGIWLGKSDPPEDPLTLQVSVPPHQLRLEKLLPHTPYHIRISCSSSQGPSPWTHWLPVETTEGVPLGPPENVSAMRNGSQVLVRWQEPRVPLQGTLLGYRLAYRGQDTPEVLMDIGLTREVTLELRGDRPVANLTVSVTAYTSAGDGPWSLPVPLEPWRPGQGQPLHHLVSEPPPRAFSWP
Experimental: as §1, §2

[4] = biological target: T4, Tyro-3-Fc (h-Tyro-3) (human, UniProt Q06418 41-428, limits assumed); experiment: ELISA, plates with human Tyro-3-Fc, HRP-conjugated anti-mouse IgG, OD 450 nm
T4 construct: The species is read from the label 'h-Tyro-3'; also called human Tyro-3-Fc; not shown: Fc part
T4 sequence (looked up): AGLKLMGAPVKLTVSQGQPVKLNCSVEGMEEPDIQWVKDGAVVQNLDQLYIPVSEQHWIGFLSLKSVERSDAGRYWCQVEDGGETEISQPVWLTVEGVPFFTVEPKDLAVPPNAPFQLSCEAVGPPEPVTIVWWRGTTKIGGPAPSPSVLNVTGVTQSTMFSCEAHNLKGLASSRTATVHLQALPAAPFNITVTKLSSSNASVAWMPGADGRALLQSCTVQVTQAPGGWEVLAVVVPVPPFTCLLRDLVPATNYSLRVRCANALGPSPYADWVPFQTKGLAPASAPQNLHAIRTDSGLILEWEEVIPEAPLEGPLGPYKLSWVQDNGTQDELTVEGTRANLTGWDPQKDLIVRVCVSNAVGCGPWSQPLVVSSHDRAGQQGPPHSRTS
Experimental: as §1, §2

[5] = biological target: human Axl extracellular domain fused to human Fc domain (hAxl-hFc protein; R&D system) (human) (UniProt P30530); experiment: SPR (BIAcore), hAxl-hFc amine-coupled to a CM5 chip; 20G7-D9 (666 nM by the text) injected first, lower panel
[6] = biological target: human Axl extracellular domain fused to human Fc domain (hAxl-hFc protein; R&D system) (human) (UniProt P30530); experiment: SPR (BIAcore), hAxl-hFc amine-coupled to a CM5 chip; 20G7-D9 (666 nM by the text) injected second, without removing Gas6, upper panel
[7] = biological target: human Axl extracellular domain fused to human Fc domain (hAxl-hFc protein; R&D system) (human) (UniProt P30530); experiment: SPR (BIAcore 3000), hAxl-hFc amine-coupled on CM5 chip, mAb injected at 2 to 133 nM, 25 °C, 1:1 Langmuir model; hAxl-hFc on the CM5 chip, mAb injected at 2 to 133 nM, 25 C

binding result [1]: binds
binding result [2]: no binding
binding result [3]: no binding
binding result [4]: no binding
response (RU) [5]: 2530 RU
response (RU) [6]: 2280 RU
Kd [7]: 53 nM
B1: mouse anti-Axl monoclonal antibody 20G7-D9 (antibody, V domains shown)
VH: QVQLQQSGAELMKPGASVKMSCKAAGYTFSSYWIEWVRQRPGHGLEWIGEIFPGSDSTNYNEKFNDRATFTADTSSNTAYMQLSSLTSEDSAVYYCARPLYYGSSAWFAYWGQGTLVTVSA
VL: DIQMTQSPASLSASVGETVTITCRASENIYSYLTWYQQKQRKSPQLLVYNAKTLAEGVPSRFSGSGSGTQFSLKINSLQPEDFGTYYCQHHYATPWTFGGGTKVEIK
notes: the irrelevant control Px is called 'murine IgG1 isotype mAb'; also called mAb 20G7-D9; mAb 20G7D9
